Test results from the nanobody polyreactivity screen of Harvey et al. (2022).

Experiment: yeast display, Sf9 membrane polyspecificity reagent, FACS + sequencing; frameworks hold sequencing errors
Procedure, shortened: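 In a synthetic yeast display library (Saccharomyces cerevisiae BJ5465), nanobody expression was induced with galactose for 36–48 hours. FACS gates were set low and high (top ~1%) using anti-HA fluorescence for expression and streptavidin fluorescence for binding of the Sf9 membrane reagent. Each polyreactivity label is drawn from the gate of origin.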

Row | Sequence | polyreactivity (PSR sort gate)
1 | QVQLVESGGGLVQAGGSLRLSCSASGITFPDYAMGWYRQAPVKERELVATISSSGGNTYYADSVKGRFTISRDNAKNTVYLQMNSLKPEDTAVYYCATVSYYWGYDYWGQGTQVTVSS | low polyreactivity
2 | QVQLVESGGGLVQAGGSLRLSCSASGITFWKYAMGWYRQAPGKERELVASISGRGGSTYYADSVKGRFTISRYKANNTVYLQMNSLKPEDTAVYYCAKYPGISGYNYWGQGTQVTVSS | high polyreactivity
3 | QVQLVESGGGLVQAGGSLRLSCSASGITYGGNEMGWYRQAPGTESELVAGIDDGGSTNYADSVKGRFTISRDNAKNTVYLQMNSLKPEDTAVYYCAVQGHPPLGILPGFLFDYWGQGTQVTVSS | low polyreactivity
4 | QVQLVESGGGLVQAGGSLRLSCSASGLTFYSNAMGWYRQAPGKERELVASISKRGATTYYADSVKGRFTISRDNAKNTVYLQMNSLKPEDTAVYYCAADLRITSYNSWGQGTQVTVSS | low polyreactivity
5 | QVQLVESGGGLVQAGGSLRLSCSASGNIFKRYTMGWYRQAPGKERELVAAISGGDSTNYADSVKGRFTISRDNAKKTVYLQMNCLKPEDTAVYYCAGGGLTLWHGYILGYWGQGTQVTVSS | low polyreactivity
6 | QVQLVESGGGLVQAGGSLRLSCSASGRIFGAYAMGWYRQAPGKERELVAAITSAGSAHYADYVKGRFTISRDNAKNTVYLQMNSLKPEDTAVYYCAADGIARAYVLFYAYDFLYDYWGQGTQVTVSS | low polyreactivity
7 | QVQLVESGGGLVQAGGSLRLSCSASGRIFGYNAMGWSRQAPGKERELVAAISYSGTSTYYADSVKGRFTISRDKAKNTVYLQMNSLKPEDTAVYYCATLAYRWSVAYEYLGQGTQVTVSS | low polyreactivity
8 | QVQLVESGGGLVQAGGSLRLSCSASGRIFSVYAMGWYRQAPGKERELVAAITWRGGSTYYADSVKGRFTISRDNAKNTVYLQMNSLKPEDTAVYYCAAVESGYGSKRFYYWGQGTQVTVSS | high polyreactivity
9 | QVQLVESGGGLVQAGGSLRLSCSASGRIFYPYAMGWYRQAPGKERELVAAITRRTASTYYADSVKGRFTISRDNAKNTVYLQMNSLKPEDTAVYFCAADSYLKRPYYAGYYYWGQGTQVTVSS | high polyreactivity
10 | QVQLVESGGGLVQAGGSLRLSCSASGRTFIVYAMGWYRQAPGKERELVAAITTSVGRTYYADSVKGRFTISRDNAKNTVYLQMNSLKPEDTAVYYCAADRLDGYSEYYYWGQGTQVTVSS | low polyreactivity
11 | QVQLVESGGGLVQAGGSLRLSCSASGSIFDAYAMGWYRQAPGKERELVAAITTGGGSTYYADSVKGRFTISRDNAKNTVYLQMNSLKPEDTAVYYCAAEGFATDGWWYYKAYDDWGQGTQVTVSS | low polyreactivity
12 | QVQLVESGGGLVQAGGSLRLSCSASGSIFDRYTIGWYRQAPWKERDLVAAITFGGGSTYYADSVKVRFTISRDNAKNTDYLQRNSLKPADTAVYYCAKQRHGKLGHILGYNYWGQGTQVTVSS | low polyreactivity
13 | QVQLVESGGGLVQAGGSLRLSCSASGSIFYVYAMGWYRPAPGKERELVAAITSSGTTNYADSVKGRFTISRDNAKNTVYLQMNSLKPEDTAVYYCAADPDSGQVPFDYWVQGTQVTVSS | low polyreactivity
14 | QVQLVESGGGLVQAGGSLRLSCSASGSIFYWYDMGWYRLAPGKERELVAAISSGGSTNYADSVKGRFTISRDNAKNTVYLQMISLKPEDTAVYYCNADVPLRYGPIYFRRLDYWGQGTQVTVSS | low polyreactivity
15 | QVQLVESGGGLVQAGGSLRLSCSASGSISGYYAMGWYRQAPGKERELVASIRYTGARTYYADSVKGRFTISRDNAKNTVYLQMNSLKPEDTAVYYCAAERSWYTWFASDYDYWGQGTQVTVSS | low polyreactivity
16 | QVQLVESGGGLVQAGGSLRLSCSASGSTFYGYAMGWYRQAPGKEWELVAAINWSGGSTYYADSVKGRFTISRDNAKNTVYLQMNSLKPEDTAVYYCNKAWLGSVSRRYYYWGQGTQVTVSS | high polyreactivity
17 | QVQLVESGGGLVQAGGSLRLSCSASGSTFYRKTMGWYRQAPGKERELVAAISSGGGTKYADSVKGRFTISRDNAKNTVYLQMNSLKPEDTAVYYCAAVYYTLGYAYYPYIYYYWGQGTQVTVSS | high polyreactivity
18 | QVQLVESGGGLVQAGGSLRLSCSASGSTITTYAMGWYRQAPGKERELVAAISTNGGRTCYADSVKGRFTISRDYAKNTVSLQMNSLKPEDTAVYYCAAEYGLYAPGYYYWGQGTQVTVSS | low polyreactivity
19 | QVQLVESGGGLVQAGGSLRLSCSASGSTSGKYAMGWYRQAPGKESELVAGITKGGGGTYYADSVKGRFTISRDNAKNTVYLQMNSLKPEDTAVYYCAKYYGSGYYIYDYWGQGTQVTVSS | low polyreactivity
20 | QVQLVESGGGLVQAGGSLRLSCSASGSTSYYYAMGWYRQAPGKERELVATISTTGAGTYYADSVKGRFTISRDNAKTTVYLQMNILKPEDTAVFYCAKDGKASRDDAEYYYWGQGTQVTVSS | low polyreactivity
21 | QVQLVESGGGLVQAGGSLRLSCSASGSTYYNAMGWYRQAPGKERQLVAAIRFRSGSTYYADSVKGRFTISRDNAKNTVYLQMNSLKPEDTAVYYCAADNKRSWRYAYTYWGQGTQVTVSS | high polyreactivity
22 | QVQLVESGGGLVQAGGSLRLSCSASGTILYFYAMGWYRQAQGKERELVAAIDSGGSTDYADSVKGRFTISRYNAKNTVYLQMNSLKPEDTAVYYCAAYPWERYTWWYVYRGHVYWGQGTQVTVSS | low polyreactivity

Row | Sequence | polyreactivity (PSR sort gate)
23 | QVQLVESGGGLVQAGGSLRLSCSASGTTFRYNAMGRYRQAPGKERQLVAAITSGGTTNYADSVKGRFTISRDNAKNTVYLQMNSLKPEDTAVYYCAKKRPGFLRYGSIGEFQYDYWGQGTQVTVSS | low polyreactivity
24 | QVQLVESGGGLVQAGGSLRLSCSASGYIFDYNAMGWYIQAPGKERELVAAITFRDGSTYADSVKGRFTISRDNAKNTVYLQMNSLKPEDTAVYYCNRRSQVHSHSKHDYWGQGTQVTVSS | low polyreactivity
25 | QVQLVESGGGLVQAGGSLRLSCSASGYIFSSNTMGWYRQAPGTERELVAGISGRTGRTYYADSVKGRFTISRDNAKNTVYLQMNSLKPEDTAVYYCARVPYQGYPRRRLSGYYYWGQGTQVTVSS | high polyreactivity
26 | QVQLVESGGGLVQAGGSLRLSCTASGIIFGTYAMGWYRQAPGKERELVAAISSSGVSTYYADSVKGRFTISRDNAKNTVYLQMNSLKPEDTAVYYCAAPLHYGYYYWGQGTQVTVSS | high polyreactivity
27 | QVQLVESGGGLVQAGGSLRLSCTASGNTFALYAMGWYRQAPGKERELVARISRRGGSTYYADSVKGRFTISRDNAKNTVYLQMNSLKPEDTAVYYCAKTHSYYPWEVNYWGQGTQVTVSS | high polyreactivity
28 | QVQLVESGGGLVQAGGSLRLSCTASGRTLYNYTMGWYRQAPGKERELVAAISRGGGSTYYADSVKGRFTISRDNAKNTVYLQMNSLKQEDTAVYYCATDQTYPYCGGGDYWGQGTQVTVSS | low polyreactivity
29 | QVQLVESGGGLVQAGGSLRLSFAASGFTFSAYAMGWYRQAPGKERELVASISGSAGSTYYADTVKGRFTISRYNAKNTVYLHMNSLKPEDTAVYYCNARRRQWQARYDYWGQGTQITVSS | high polyreactivity
30 | QVQLVESGGGLVQAGGSLRLSFAASGIIFDLYAMGWYRQAPGKERELVAAITRSVGSTYYADSVKGRFTISRDNAKNTVYLQMNSLKPEDTAVYFCAAVRFAYGYTYDYWGQGTQVTVSS | high polyreactivity
31 | QVQLVESGGGLVQAGGSLRLSFAASGIIFGWYAVGWYRQAHGKDRELVAAINIGGSTNYADSVKGRFTISRYNAKNTVYLQMNSLKPEDTADYYCNARTPGYRYGRDYWGQGTQVTVSS | high polyreactivity
32 | QVQLVESGGGLVQAGGSLRLSFAASGIIFTRYAMGWYRQAPGKERELVARISWRGSSTSYPDSVKGRFTISRDNAKNTVYLQMNSLKPEDSAVYYCAARYLYLWADYEFGYWVQGTQVTVSS | high polyreactivity
33 | QVQLVESGGGLVQAGGSLRLSFAASGITFASNTMGWYRQAPGKERELVAAITRGDNTYYADSVKGRFTISRDNAKNTVYLQMKSLKPEDTAVYYCAKDPHGVEPVPDGYDYWGQGTQVTVSS | low polyreactivity
34 | QVQLVESGGGLVQAGGSLRLSFAASGRIFQFYGMGWYRQAPGKEREFVAAITRNGGNTYYADSVKGRYTISRDNAKNTVDLQMNSLKPEDTAVYYCAAANPRDHRGANDYWGQGTQVTVSS | high polyreactivity
35 | QVQLVESGGGLVQAGGSLRLSFAASGRNFYRYAMGWYRQAPGKERELVAAISRGGRTNYADSVKGRFTISRDNAKNTGYLQMNSLKPEDTAVYYCAVTNFGALYDYWGQGTQVTVSS | high polyreactivity
36 | QVQLVESGGGLVQAGGSLRLSFAASGRTFEKYAMGWYRQAPGKERELVAAISGSGGSTFYADSVKGRFTISRDIAKYTVYLQMISLKPEDSAVYYCAADSRSHPGDYWGQGTQVTVSS | low polyreactivity
37 | QVQLVESGGGLVQAGGSLRLSFAASGRTFGGYTMGWYRQAPGKERELVAAITWNGGRTYYADSVKGRFTISRDNAKNTVYLQMNILKPEDTAVYFCAVRIRLRRARLSYDYWGQGTQVTVSS | high polyreactivity
38 | QVQLVESGGGLVQAGGSLRLSFAASGSIFASNAMGWYRQAPGKERELVAAISKRGGSTYYVDSVKGRFTISRDNAKNTVYFQMNSLKPEDTAVYYCNTYIRQDAPGQYDYWGQGTQVTVSS | high polyreactivity
39 | QVQLVESGGGLVQAGGSLRLSFAASGSIFASNTMGWNSPEPGKERELVAAISSNGGSTYYADSVKGRFTISRDNAKNTFYLQMNSLKPEDTGVYYCNAELSTSELGGMYSWGQGTQVTVSS | low polyreactivity
40 | QVQLVESGGGLVQAGGSLRLSFAASGSIFVQYAMRWYRPAPGKERELVAAIDFSDTSTYYADSVKGRFTISRDNAKNTVYLHMNSLKPEDTAVYYCAAEEDSPCRSAIAEEEYWGQGTLVTVSS | low polyreactivity
41 | QVQLVESGGGLVQAGGSLRLSFAASGSIFYVYAMGWYRQAPGKERELVAAITWSGGSTYYADSVKGRFTLSRDNAKNTVYLQMNSLKPEDTAVYYCAADEGYDYPYYYWGQGTQVTVSS | high polyreactivity
42 | QVQLVESGGGLVQAGGSLRLSFAASGSTFSRYAMGWYRQAPGKERELVAAISSGGGTNYADSVKGRFTISRDNAKNTVYLQMNSLKPEDTSVYYRAAVTVDFLKGYGWWFWQISDFWGQVTQVTVSS | low polyreactivity
43 | QVQLVESGGGLVQAGGSLRLSFAASGSTFYVYPMGWYRQAPGKERELVAAITDSGGSTYADSVKGRFTISRDNAMNTVYLQFNSLKPEASAVYADSTFYWYYYYWGQGPQVTVSS | low polyreactivity
